These results are taken from patent publication US20110112037A1, “CRYSTAL STRUCTURE” (Heptares Therapeutics Limited BioPark, priority 2008, published 2011).

The solubility is how much of the substance goes into solution per volume. A low value points to little dissolved substance.

In brackets after ≈: the same amount, converted by molar mass.

Sequence of m23 mutant receptor (P07700 whole entry R68S/M90V/Y227A/A282L/F327A/F338M): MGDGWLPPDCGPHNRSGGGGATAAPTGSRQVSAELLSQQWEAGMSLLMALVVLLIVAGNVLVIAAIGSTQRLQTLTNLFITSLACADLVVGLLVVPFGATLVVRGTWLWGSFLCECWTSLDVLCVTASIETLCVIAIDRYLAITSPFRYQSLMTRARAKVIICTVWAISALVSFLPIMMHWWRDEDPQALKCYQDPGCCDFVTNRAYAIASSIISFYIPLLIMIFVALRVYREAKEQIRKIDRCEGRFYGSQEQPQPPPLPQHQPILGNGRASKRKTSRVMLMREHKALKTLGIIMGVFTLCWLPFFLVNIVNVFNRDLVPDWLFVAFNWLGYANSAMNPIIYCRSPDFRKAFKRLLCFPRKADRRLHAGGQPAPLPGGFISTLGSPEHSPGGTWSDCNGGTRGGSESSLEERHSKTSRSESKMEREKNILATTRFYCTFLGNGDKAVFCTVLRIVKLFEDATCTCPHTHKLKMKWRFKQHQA

Tested on in one data set: not listed separately
Kind of data set: physchem. The following applies: aqueous buffer. In kind it is physicochemical.
Turning to `CC(C)(C)NCC(O)COc1cccc2[nH]c(C#N)cc12` (stereo not shown) [cyanopindolol], the solubility was 750 µM (≈ 216 µg/mL).

Tested on in a further data set: not listed separately
Description: Thermal stability of β1AR point mutants (Table 3) and of β1-m23 in detergent. In kind it is physicochemical, turkey. Particulars: β1AR alanine mutants in CL2. The source says: Short-chain detergents, such as nonyl- and octyl-glucosides, are the best choice for crystallisation of small membrane proteins, but β1 was unstable in them and precipitated upon detergent exchange (Warne et al 2003). We therefore expressed β1 in an Escherichia coli expression system (Grisshammer et al) and evolved it into a conformationally thermostabilised form (β1-m23) that is stable even in short-chain detergents (Serrano PNAS). […] The receptor construct that crystallised (FIG. 1) has deletions at the N-terminus, C-terminus and in cytoplasmic loop 3 to remove regions that were predicted to be unstructured (Warne et al 2003). It also contains 8 point mutations, 6 for thermostabilisation (R68^1.59S, M90^2.52V, Y227^5.58A, A282^6.27L, F327^7.38A, F338^7.49M), one for improved expression (C116^3.27L) and one for the removal of a palmitoylation site (C358^8.53A).
The CL2 loop has been proposed to function as the switch enabling G protein activation (Burstein et al 1998) and, from the β1 structure, it is clear that this region also has an important contact to the adjacent highly conserved D^3.49R^3.50Y^3.51 motif in helix 3. […] This is mainly due to the increased distance between the Cα atoms of Arg^3.50 and Glu^6.30 in β1 (10.9 Å) and β2 (11.2 Å) compared with rhodopsin (8.7 Å). There is, however, an intrahelical interaction between Asp^3.49 and […] of the DRY motif in all three […] structures. The helical conformation of CL2 in the β1 structure positions Tyr149^3.89 sufficiently close to Asp138^3.49 of the DRY motif to allow the formation of a H-bond. Supporting evidence for this structural role of Tyr149^3.89 comes from the observation that the Y149A mutation makes β1AR much less thermally stable (Table 3). The equivalent Tyr141^3.60 in both β2 structures is in a cavity between helix 3, 4 and 6, but the biological relevance of this is unclear, due to the perturbations in this region caused by either the T4 lysozyme fusion or by the bound antibody Fab.
For Q150A: β1AR point mutant Q150A, the “Stability (wild type = 100)” value was determined as 117.
On to P146A: β1AR point mutant P146A, for which the “Stability (wild type = 100)” value is listed as 13.
Same read-out and setting: with F147A: β1AR point mutant F147A the figure was 128; with S151A: β1AR point mutant S151A, 117; with “Y149A: β1AR point mutant Y149A, much less thermally stable”, 1.
Take S145A: β1AR point mutant S145A: the “Stability (wild type = 100)” value is given as 68.
With R148A: β1AR point mutant R148A, the “Stability (wild type = 100)” value is on record as 89.
Take T144A: β1AR point mutant T144A: the “Stability (wild type = 100)” value is 72.

The next data set concerns the target m23 mutant receptor (Meleagris gallopavo, UniProt P07700, A282L/F327A/F338M/M90V/R68S/Y227A).
Test: not given
The following applies: FIG. 11.
Regarding `Cc1ccc(OCC(O)C(C)NC(C)C)c2c1CCC2` (stereo not shown) [ICI 118551], the “effect on cAMP accumulation by m23” value was “does not depress the cAMP accumulation”.
